Measurements as given in the supplement of paper PMC9170038.

Key:
MS2 coat protein [1] = assay: apparent KD of MS2 coat protein, switch OFF state (with FMN for OFF switches, without FMN for ON switches); designed switch direction (-1 OFF switch, 1 ON switch): -1; higher = weaker reporter binding; details: FMN input: 0 or 200 uM; Eterna round: R93 (includes R88 designs)
In short: (§1)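 Designed RNA switches were transcribed on-chip from Illumina sequencing clusters. They were then titrated with SNAP-549-labelled MS2 coat protein (twofold steps, 0.7 or 1.5 nM to 3 µM; 0.8–1.5 h to 10–20 min per step) in 100 mM Tris-HCl pH 7.5, 80 mM KCl, 4 mM MgCl2, without or with constant ligand. Apparent KD is the per-design median of normalised cluster binding-curve fits.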

MS2 coat protein [2] = assay: apparent KD of MS2 coat protein, switch ON state; designed switch direction (-1 OFF switch, 1 ON switch): -1; higher = weaker reporter binding; details: FMN input: 0 or 200 uM; Eterna round: R93 (includes R88 designs)
In short: as §1

Sequence	apparent KD of MS2 coat protein (MS2 coat protein [1]) [µM]	apparent KD of MS2 coat protein (MS2 coat protein [2]) [µM]
AAAAAACAUGAGGAUCACCCAUGUGAGGAUAUGCGAAAUAAAAAUAAAAUAAUAAAAAGCAGAAGGCACAAAAA [Amethyst 64]	0.0406	0.0301
AAGAAGAGAGGAUAUACAUGAGGAUCACCCAUGUAAAAGAAAGAAAGGGAAAAGAAAAGUAGAAGGCUCAAGAA [Neferkare-setpenre Ramesses IX]	0.0457	0.0346
AGGUAGUCAGGAUAUGCGUGAAGAAUAAAACAAAUAACAACGCAGAAGGGACAUGAGGAUCACCCAUGUUAAGA [May 48]	0.0317	0.0361
AAAAAGCAAGGAUAUACAUGAGGAUCACCCAUGUGAAAAAAAACAAUAAGAAGAAAAAGUAGAAGGUGCAAAAA [Ex 3 Tesla 1]	0.0188	0.024
GCUGUCCUAGGAUAUACAUGAGGAUCACCCAUGUGAGAGAAAAAAGUGAGAAAGAAAAGUAGAAGGAGGGUAGG [salish99-ex3-104]	0.0444	0.0304
GGUUGGCGAGGAUAUACAUGAGGAUCACCCAUGUGAGAGAAAAAAGUGAGAAAGAAACGUAGAAGGCGCUGACG [salish99-ex3-30]	0.824	0.0884
AAAAAGUCAGGAUAUAGAAAAGGUCACGAAAGUGACAAAGGCUAGAAGGGACAUGAGGAUCACCCAUGUAAAAA [Mat - Mod of Eli]	0.0288	0.0535
GAAAAGGAAGGAUAUACAAAGGGACCUUAUAAAAGAAGAAGACAUGAGGAUCACCCAUGUAGAAGGUCCAGAUA [Diusanatra]	0.0196	0.0195
AACAGGUCAGGAUAUGUGGAAAAAAUAAAAAAAAUAAAAACACAGAAGGGACAUGAGGAUCACCCAUGUAAAAA [May 20]	0.0756	0.0595
AUGUACCUAGGAUAUACAUGAGGAUCACCCAUGUUCCGGGAGCAAUCAAGUUAAUAUUGUAGAAGGAGGUGAAA [JR_Exc003_Sub314]	0.0284	0.016
AGGGAGUGAGGAUAUACGAAAUAAAAAGAAGGAAAAAAAGAGUAGAAGGCACAUGAGGAUCACCCAUGUGAGAA [milkweed 12]	0.0206	0.0207
AAUAAAGCAGGAUAUACUAAAGAAAUGAAAAGAAAUAAAGAACAUGAGGAUCACCCAUGUAGAAGGGCUAAUAA [Semqen]	0.0184	0.0428
AGAAAACAUGAGGAUCACCCAUGUAAGGAUAUGCUGAAAAACACGGAAAAAACGUGCAGCAGAAGGUACAAAAA [Mat - Exclusion 1 - Eli mod - D97]	0.0386	0.0178
AAGGGACAUGAGGAUCACCCAUGUGAGGAUAUGAUGCGAAUAAAGAAAUAAUAAAGCAUCAGAAGGCACACCAA [Mat - Exclusion 1 - Eli mod - D67]	0.0885	0.0824
AAAAAACAUGAGGAUCACCCAUGUAAGGAUAUGUGAAAAAAAAAAUAAAAAAAAAAAAACAGAAGGUACAAAAA [LROPPY Exclusion 1 - v02_deltaG=3.34]	0.0477	0.0452
AGCUAGUCAGGAUAUACGAACAUGUCAAAAGACGUGAAAGAACAUGAGGAUCACCCAUGUAGAAGGGACUAGCA [Mat - Exclusion 2 - JL-Eli mod - D48]	0.018	0.0194
AGAAAACAUGAGGAUCACCCAUGUCAGGAUAUCGAUGUCCAAAAAAAAGUGCGGGACUCGAGAAGGGACUUGGG [Mod of Erbelaed v.2 (favor state 2,lowered kcal by 2.7)]	0.0246	0.0272
AAAAAGGCAGGAUAUACGUACAUGUCGAAAGACGUGAAGGGACAUGAGGAUCACCCAUGUAGAAGGGUCAAGAA [Mat - Exclusion 2 - JL mod - D77]	0.0934	0.111
UGGGAGUCAGGAUAUACGAACAUGUCGCCAGAUGUCAAGGUACAUGAGGAUCACCCAUGUAGAAGGGAGGAGAA [salish99-Ex2-30(!)]	0.0566	0.0971
CUUAUGUGAGGAUAUGGUGUUGGCCACAGGGAAAAGAUCCUCCAGAAGGCACAUGAGGAUCACCCAUGUAGUGA [Jolly's Folly 29 - Jieux - Exclusion 4]	0.16	0.069

Sequence	apparent KD of MS2 coat protein (MS2 coat protein [1]) [µM]	apparent KD of MS2 coat protein (MS2 coat protein [2]) [µM]
AAGGGACAUGAGGAUCACCCAUGUUAGGAUAUGCAAAUAACAAACAACAAACAACAAAGCAGAAGGGACAAAAA [Mat - Exclusion 1 - Eli mod - D54]	0.0293	0.0375
AAGAAGUGAGGAUAUACAAAAUAAAAGAAAAGAAAGAAAGAACAUGAGGAUCACCCAUGUAGAAGGCACAAGAA [Sekhemkare Amenemhat V]	0.0178	0.022
AAAAAACAUGAGGAUCACCCAUGUCAGGAUAUACAAAAUAAAAUAAAAAUAAAAUAAAGUAGAAGGGACAAAAA [May 8]	0.0254	0.0285
AUAAUCCUAGGAUAUACAUGGAUAUACAUUCAUGUGGACCUACAUGAGGAUCACCCAUGUAGAAGGAGGAUGAA [Mat - Same state - Mayanna Mod - D138]	0.0395	0.035
AGCUAGUCAGGAUAUACGAACAAGACAAAAGACGAGAACGGACAUGAGGAUCACCCAUGUAGAAGGGACUAGCA [Diamond 8]	0.0288	0.0257
CUCUAGUGAGGAUAUCGAAGAAAAGAAGAGAAAGAAAAGAACGAGAAGGCACAUGAGGAUCACCCAUGUAAGAA [EteRNA is fun!]	0.049	0.0236
AAAAAGAGAGGAUAUACAUGAGGAUCACCCAUGUGAAAGACGAAAAAAAGUCUAAAAUGUAGAAGGCUCAAAAA [65%, Moding Exclusion3-cac2, 13]	0.0897	0.0231
AAGGUAUAAGGAUAUACAUAGAUACAGACACAUGUUCAAGUACAUGAGGAUCACCCAUGUAGAAGGUAUAUAUA [AJ 13]	0.0267	0.0292
CACGUACAUGAGGAUCACCCAUGUUAGGAUAUGCCGGGUAAGAGAAAACUAAAAAUCCGCAGAAGGGACGAAAC [Bilbo Confounded 15 - Jieux - Exclusion 1]	0.0338	0.032
GGAAAACAUGAGGAUCACCCAUGUAAGGAUAUGCAAAGGAUAUAGAAGGAAAAAAAAAGCAGAAGGUACAAAGG [salish99-ex1-20]	0.0536	0.0265
AAAAAGUGAGGAUAUUCGGAUAGGAAAACGAAAACCUAUCCGAAGAAGGCACAUGAGGAUCACCCAUGUGGAAG [Mat - Exaclusion 4 - Eli mod - D47]	0.0483	0.0372
AGUUGGCGAGGAUAUACAUGAGGAUCACCCAUGUGAGAGAAAUAAGUGAGAAAGAAAAGUAGAAGGCGCUAACA [JL Lego Mod 18]	0.164	0.0535
GAGAUACAUGAGGAUCACCCAUGUGAGGAUAUCGGUUGGAGGAGGUGGAGGUUGAGUACGAGAAGGCACGGAUG [salish99-Ex1-10]	0.0311	0.0249
AACUGACAUGAGGAUCACCCAUGUCAGGAUAUGCUUCUAGGAAAAAUAAAAACUAGAUGCAGAAGGGAUAUGGG [Design 38]	0.0333	0.0222
AGGCGGGUAGGAUAUGCGUACUGACGGGAAAACUGAAUGGUACAUGAGGAUCACCCAUGUAGAAGGGCUCUGAA [Dora Explored 23 - Jieux - Exclusion 2]	0.111	0.0671
AAAUAGCAAGGAUAUACAUGAGGAUCACCCAUGUGACCCAGGUAUGGCAUAGAAUAGAGUAGAAGGUGCAAAUA [Mod 4 of Ex 3 Tesla 8 - Jieux - Exclusion 3]	0.149	0.132
AAAAAACAUGAGGAUCACCCAUGUGAGGAUAUCCAGAAUGGAAUAAAAUAACAAGAAAGGAGAAGGCACAAAAA [Ex 1 May 37]	0.0421	0.0677
AGAAAGUCAGGAUAUACGAAUAAGAAAAAAGACGAGAACGGACAUGAGGAUCACCCAUGUAGAAGGGACAAGAA [Diamond 15]	0.0406	0.0912
AAGAAGGCAGGAUAUACAAAAUAAAAGAAAAGAAAGAAAGAACAUGAGGAUCACCCAUGUAGAAGGGUCAAGAA [Sankhenre Sewadjtu]	0.0372	0.0479
